The source of these data is the Human Domainome abundance scans (Beltran et al. 2025).

The labels stand for the following.
B1: Zinc finger homeobox protein 4, residues 2086 to 2141; numbered along this chain, Q86UP3 (parent)
chain: RPRTRITDDQLKILRAYFDINNSPSEEQIQEMAEKSGLSQKVIKHWFRNTLFKERQ

± gives the uncertainty stated by the source.

The variants in this series derive from B1. Briefly: abundance fitness (aPCA) (normalised: wild type 0, dead -1); higher = more abundant; growth selection in yeast, the domain comes from the species named. As to conditions: Homo sapiens.
As to RPRTRITDDQLKILRAYFDINNSPSEEQIQEMAEKFGLSQKVIKHWFRNTLFKERQ [S36F], the abundance fitness is -0.357 ± 0.1.
Next, RPRTRITDDQLKILRAYFDINNSPSEEQIQEMAEKHGLSQKVIKHWFRNTLFKERQ [S36H]: -0.367 ± 0.13.
Next, RPRTRITDDQLKILRAYFDINNSPSEEQIQEMAEKCGLSQKVIKHWFRNTLFKERQ [S36C]: -0.002 ± 0.1.
Next, RPRTRITDDQLKILRAYFDINNSPSEEQIQEMAEKEGLSQKVIKHWFRNTLFKERQ [S36E]: -0.244 ± 0.085; RPRTRITDDQLKILRAYFDINNSPSEEQIQEMAEKTGLSQKVIKHWFRNTLFKERQ [S36T]: -0.108 ± 0.094; RPRTRITDDQLKILRAYFDINNSPSEEQIQEMAEKSGLKQKVIKHWFRNTLFKERQ [S39K]: 0.081 ± 0.26.
For RPRTRITDDQLKILRAYFDINNSPSEEQIQEMAEKSGLLQKVIKHWFRNTLFKERQ [S39L], the abundance fitness was -0.767 ± 0.25.
Take RPRTRITDDQLKILRAYFDINNSPSEEQIQEMAEKSGLGQKVIKHWFRNTLFKERQ [S39G]: the abundance fitness is -0.227 ± 0.18.
Next, RPRTRITDDQLKILRAYFDINNSPSEEQIQEMAEKSGLEQKVIKHWFRNTLFKERQ [S39E]: 0.127 ± 0.21; RPRTRITDDQLKILRAYFDINNSPSEEQIQEMAEKSGLMQKVIKHWFRNTLFKERQ [S39M]: 0.217 ± 0.34; RPRTRITDDQLKILRAYFDINNSPSEEQIQEMAEKSGLAQKVIKHWFRNTLFKERQ [S39A]: -0.163 ± 0.25.
Next, RPRTRITDDQLKILRAYFDINNSPSEEQIQEMAEKSGLFQKVIKHWFRNTLFKERQ [S39F]: -0.323 ± 0.28.
With RPRTRITDDQLKILRAYFDINNSPSEEQIQEMAEKSGLCQKVIKHWFRNTLFKERQ [S39C], the abundance fitness is -0.395 ± 0.17.
With RPRTRITDDQLKILRAYFDINNSPSEEQIQEMAEISGLSQKVIKHWFRNTLFKERQ [K35I], the abundance fitness was -0.518 ± 0.13.
Consider RPRTRITDDQLKILRAYFDINNSPSEEQIQEMAEGSGLSQKVIKHWFRNTLFKERQ [K35G], for which the abundance fitness was -0.242 ± 0.07.
RPRTRITDDQLKILRAYFDINNSPSEEQIQEMAEDSGLSQKVIKHWFRNTLFKERQ [K35D]: the abundance fitness was -0.375 ± 0.12.
Next, RPRTRITDDQLKILRAYFDINNSPSEEQIQEMAEMSGLSQKVIKHWFRNTLFKERQ [K35M]: -0.304 ± 0.092; RPRTRITDDQLKILRAYFDINNSPSEEQIQEMAEFSGLSQKVIKHWFRNTLFKERQ [K35F]: -0.415 ± 0.11; RPRTRITDDQLKILRAYFDINNSPSEEQIQEMAEQSGLSQKVIKHWFRNTLFKERQ [K35Q]: -0.18 ± 0.098.
Consider RPRTRITDDQLKILRAYFDINNSPSEEQIQEMAESSGLSQKVIKHWFRNTLFKERQ [K35S], for which the abundance fitness is -0.192 ± 0.077.
Next, RPRTRITDDQLKILRAYFDINNSPSEEQIQEMAELSGLSQKVIKHWFRNTLFKERQ [K35L]: -0.261 ± 0.072; RPRTRITDDQLKILRAYFDINNSPSEEQIQEMAEWSGLSQKVIKHWFRNTLFKERQ [K35W]: -0.615 ± 0.089; RPRTRITDDQLKILRAYFDINNSPSEEQIQEMAEESGLSQKVIKHWFRNTLFKERQ [K35E]: -0.215 ± 0.1.
As to RPRTRITDDQLKILRAYFDINNSPSEEQIQEMAECSGLSQKVIKHWFRNTLFKERQ [K35C], the abundance fitness is -0.459 ± 0.093.
With RPRTRITDDQLKILRAYFDINNSPSEEQIQEMAEHSGLSQKVIKHWFRNTLFKERQ [K35H], the abundance fitness is -0.349 ± 0.14.
Next, RPRTRITDDQLKILRAYFDINNSPSEEQIQEMAEPSGLSQKVIKHWFRNTLFKERQ [K35P]: -1.09 ± 0.16.
Next, RPRTRITDDQLKILRAYFDINNSPSEEQIQEMAEYSGLSQKVIKHWFRNTLFKERQ [K35Y]: -0.537 ± 0.15; RPRTRITDDQLKILRAYFDINNSPSEEQIQEMAEVSGLSQKVIKHWFRNTLFKERQ [K35V]: -0.418 ± 0.078; RPRTRITDDQLKILRAYFDINNSPSEEQIQEMAEASGLSQKVIKHWFRNTLFKERQ [K35A]: -0.247 ± 0.091.
Turning to RPRTRITDDQLKILRAYFDINNSPSEEQIQEMAENSGLSQKVIKHWFRNTLFKERQ [K35N], the abundance fitness was -0.265 ± 0.11.
Next, RPRTRITDDQLKILRAYFDINNSPSEEQIQEMAEKSGCSQKVIKHWFRNTLFKERQ [L38C]: -0.11 ± 0.11.
As for RPRTRITDDQLKILRAYFDINNSPSEEQIQEMAEKSGTSQKVIKHWFRNTLFKERQ [L38T], the abundance fitness is -0.279 ± 0.12.
RPRTRITDDQLKILRAYFDINNSPSEEQIQEMAEKSGNSQKVIKHWFRNTLFKERQ [L38N]: the abundance fitness was -0.769 ± 0.15.
RPRTRITDDQLKILRAYFDINNSPSEEQIQEMAEKSGRSQKVIKHWFRNTLFKERQ [L38R]: the abundance fitness is -0.746 ± 0.07.
Take RPRTRITDDQLKILRAYFDINNSPSEEQIQEMAEKSGKSQKVIKHWFRNTLFKERQ [L38K]: the abundance fitness is -0.938 ± 0.15.
RPRTRITDDQLKILRAYFDINNSPSEEQIQEMAEKSGYSQKVIKHWFRNTLFKERQ [L38Y]: the abundance fitness is -0.419 ± 0.14.
RPRTRITDDQLKILRAYFDINNSPSEEQIQEMAEKSGDSQKVIKHWFRNTLFKERQ [L38D]: the abundance fitness is -0.765 ± 0.13.
Next, RPRTRITDDQLKILRAYFDINNSPSEEQIQEMAEKSGVSQKVIKHWFRNTLFKERQ [L38V]: -0.117 ± 0.069.
For RPRTRITDDQLKILRAYFDINNSPSEEQIQEMAEKSGPSQKVIKHWFRNTLFKERQ [L38P], the abundance fitness was -0.982 ± 0.15.
In the case of RPRTRITDDQLKILRAYFDINNSPSEEQIQEMAEKSGWSQKVIKHWFRNTLFKERQ [L38W], the abundance fitness is -0.666 ± 0.083.
Next, RPRTRITDDQLKILRAYFDINNSPSEEQIQEMAEKSGESQKVIKHWFRNTLFKERQ [L38E]: -0.557 ± 0.1; RPRTRITDDQLKILRAYFDINNSPSEEQIQEMAEKSGQSQKVIKHWFRNTLFKERQ [L38Q]: -0.349 ± 0.11; RPRTRITDDQLKILRAYFDINNSPSEEQIQEMAEKSGISQKVIKHWFRNTLFKERQ [L38I]: -0.217 ± 0.14.
Consider RPRTRITDDQLKILRAYFDINNSPSEEQIQEMAEKSGSSQKVIKHWFRNTLFKERQ [L38S], for which the abundance fitness is -0.545 ± 0.081.
For the variant RPRTRITDDQLKILRAYFDINNSPSEEQIQEMAEKSGASQKVIKHWFRNTLFKERQ [L38A], the abundance fitness is -0.06 ± 0.076.
Next, RPRTRITDDQLKILRAYFDINNSPSEEQIQEMAEKSGFSQKVIKHWFRNTLFKERQ [L38F]: -0.793 ± 0.13; RPRTRITDDQLKILRAYFDINNSPSEEQIQEMAEKSGMSQKVIKHWFRNTLFKERQ [L38M]: -0.011 ± 0.11.
